Data: patent publication US20080058263A1 (published 2008)
Where a chain is given by its changes, count along the chain named.

T1: VEGFR-3-Fc (UniProt P35916 25-328)
T1 construct: domain: first three Ig domains; conditioned supernatant of 293T cells; also called VEGFR-3-Fc fusion protein; not shown: Fc fragment of the pIg vector
T1 sequence (looked up): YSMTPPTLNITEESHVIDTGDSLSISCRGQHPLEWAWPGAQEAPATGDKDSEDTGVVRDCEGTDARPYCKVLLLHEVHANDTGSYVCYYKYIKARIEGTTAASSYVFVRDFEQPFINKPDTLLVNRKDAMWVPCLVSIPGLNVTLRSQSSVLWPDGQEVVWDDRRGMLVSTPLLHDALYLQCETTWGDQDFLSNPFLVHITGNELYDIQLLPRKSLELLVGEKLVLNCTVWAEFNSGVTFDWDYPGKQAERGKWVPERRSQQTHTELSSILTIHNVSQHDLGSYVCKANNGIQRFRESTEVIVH

B1: 62-7 (ligand)
chain: GQNHHEVVKFMDVYQRSYCHPREVCIDVGKEFGVATNTFFKPPCVSVYRCGGCCNSEGLQCVPTEESNITMQIMRIKPHQGQHIGEMSFANHTSCRCMSKLD
B2: 62-9 (ligand)
chain: GQNHHEVVKFMDVYQRSYCHPREVCIDVGKEFGVATNTFFKPPCVSVYRCGGCCNDEGLECVPTEESNITMQIMRITVPLSQGPKPVTISFLQHNKCECRPKKD
B3: 63-5 (ligand)
chain: B1 chain with F32Y, G33P, V34D, A35E, T36I, N37E, T38Y, F39I, S56D, Q60E
B4: 63-10 (ligand)
chain: GQNHHEVVKFMDVYQRSYCHPREVCIDVGKEYPDEIEYIFKPPCVSVYRCGGCCNDEGLECMNTSTSYLSKTLFEITVPLSQGPKPVTISFLQHNKCECRPKKD
B5: 71-1 (ligand)
chain: GQNHHEVVKSIDNEWRKTQCMPREVCIDVGKEYPDEIEYIFKPSCVPLMRCGGCCNDEGLECVPTEESNITMQIMRIKPHQGQHIGEMSFLQHNKCECRPKKD
B6: 71-2 (ligand)
chain: GQNHHEVVKSIDNEWRKTQCMPREVCIDVGKEYPDEIEYIFKPSCVPLMRCGGCCNDEGLECMNTSTSYLSKTLFEIKPHQGQHIGEMSFLQHNKCECRPKKD
B7: 71-3 (ligand)
chain: B5 chain with D57S, E61Q
B8: 71-4 (ligand)
chain: B6 chain with D57S, E61Q
B9: 71-5 (ligand)
chain: B5 chain with L91A, Q92N, N94T, K95S, E97R, R99M, P100S, K102L
B10: 71-7 (ligand)
chain: B5 chain with D57S, E61Q, L91A, Q92N, N94T, K95S, E97R, R99M, P100S, K102L
B11: 71-8 (ligand)
chain: B6 chain with D57S, E61Q, L91A, Q92N, N94T, K95S, E97R, R99M, P100S, K102L
B12: 71-10 (ligand)
chain: GQNHHEVVKSIDNEWRKTQCMPREVCIDVGKEYPDEIEYIFKPSCVPLMRCGGCCNDEGLECMNTSTSYLSKTLFEITVPLSQGPKPVTISFLQHNKCECRPKKD
B13: 71-12 (ligand)
chain: B12 chain with D57S, E61Q
B14: 71-16 (ligand)
chain: B12 chain with D57S, E61Q, L93A, Q94N, N96T, K97S, E99R, R101M, P102S, K104L
B15: 73-1 (ligand)
chain: B5 chain with S44P, P47S, L48V, M49Y
B16: 73-2 (ligand)
chain: B6 chain with S44P, P47S, L48V, M49Y
B17: 73-3 (ligand)
chain: B5 chain with S44P, P47S, L48V, M49Y, D57S, E61Q
B18: 73-5 (ligand)
chain: GQNHHEVVKSIDNEWRKTQCMPREVCIDVGKEYPDEIEYIFKPPCVSVYRCGGCCNDEGLECVPTEESNITMQIMRIKPHQGQHIGEMSFANHTSCRCMSKLD
B19: 73-10 (ligand)
chain: B12 chain with S44P, P47S, L48V, M49Y
B20: 73-12 (ligand)
chain: B12 chain with S44P, P47S, L48V, M49Y, D57S, E61Q
B21: 74-1 (ligand)
chain: B5 chain with Y33F, P34G, D35V, E36A, I37T, E38N, Y39T, I40F
B22: 74-2 (ligand)
chain: B6 chain with Y33F, P34G, D35V, E36A, I37T, E38N, Y39T, I40F
B23: 74-3 (ligand)
chain: B5 chain with Y33F, P34G, D35V, E36A, I37T, E38N, Y39T, I40F, D57S, E61Q
B24: 74-4 (ligand)
chain: B6 chain with Y33F, P34G, D35V, E36A, I37T, E38N, Y39T, I40F, D57S, E61Q
B25: 74-6 (ligand)
chain: GQNHHEVVKSIDNEWRKTQCMPREVCIDVGKEFGVATNTFFKPSCVPLMRCGGCCNDEGLECMNTSTSYLSKTLFEIKPHQGQHIGEMSFANHTSCRCMSKLD
B26: 74-15 (ligand)
chain: GQNHHEVVKSIDNEWRKTQCMPREVCIDVGKEFGVATNTFFKPSCVPLMRCGGCCNSEGLQCVPTEESNITMQIMRITVPLSQGPKPVTISFANHTSCRCMSKLD
B27: 74-16 (ligand)
chain: GQNHHEVVKSIDNEWRKTQCMPREVCIDVGKEFGVATNTFFKPSCVPLMRCGGCCNSEGLQCMNTSTSYLSKTLFEITVPLSQGPKPVTISFANHTSCRCMSKLD

Molecular target: T2, VEGFR-1-Fc (UniProt P17948 27-338)
T2 construct: domain: first three Ig domains; expressed in Drosophila S2 cells, purified on Protein A sepharose; also called VEGFR-1-Fc fusion protein; not shown: Fc fragment from the Signal-pIgPlus vector
T2 sequence (P17948 27-338): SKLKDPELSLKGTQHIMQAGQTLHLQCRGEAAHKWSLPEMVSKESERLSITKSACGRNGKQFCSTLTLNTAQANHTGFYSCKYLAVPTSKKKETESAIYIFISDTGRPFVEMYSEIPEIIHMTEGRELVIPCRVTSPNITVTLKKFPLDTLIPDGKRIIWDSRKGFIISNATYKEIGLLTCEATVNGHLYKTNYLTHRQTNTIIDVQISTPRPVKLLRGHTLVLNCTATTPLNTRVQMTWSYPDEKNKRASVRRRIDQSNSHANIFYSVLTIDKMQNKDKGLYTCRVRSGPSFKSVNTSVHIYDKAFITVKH
Test: receptor-Fc IP
Method in brief: (§1)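 Binding of ligand from sample supernatant measured by pentahistidine-antibody immunoprecipitation. IP mix: PBS with 1.5% BSA, 0.06% Tween 20, 3 μg/ml heparin and 400 ng/ml fusion protein, added 1:2 to sample supernatant.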

Binder | binding result
B1 | no binding
B2 | no binding
B3 | no binding
B4 | no binding
B5 | no binding
B6 | no binding
B7 | no binding
B8 | no binding
B9 | no binding
B10 | no binding
B11 | no binding
B12 | no binding
B13 | no binding
B14 | no binding
B15 | no binding
B16 | no binding
B17 | no binding
B18 | no binding
B19 | no binding
B20 | no binding
B21 | no binding
B22 | no binding
B23 | no binding
B24 | no binding
B25 | no binding
B26 | no binding
B27 | no binding

Molecular target: T3, VEGFR-2-Fc (UniProt P35968 20-322)
T3 construct: domain: first 3 Ig domains; conditioned supernatant of 293T cells; also called VEGFR-2-Fc fusion protein; not shown: Fc fragment of the pIg vector
T3 sequence (P35968 20-322): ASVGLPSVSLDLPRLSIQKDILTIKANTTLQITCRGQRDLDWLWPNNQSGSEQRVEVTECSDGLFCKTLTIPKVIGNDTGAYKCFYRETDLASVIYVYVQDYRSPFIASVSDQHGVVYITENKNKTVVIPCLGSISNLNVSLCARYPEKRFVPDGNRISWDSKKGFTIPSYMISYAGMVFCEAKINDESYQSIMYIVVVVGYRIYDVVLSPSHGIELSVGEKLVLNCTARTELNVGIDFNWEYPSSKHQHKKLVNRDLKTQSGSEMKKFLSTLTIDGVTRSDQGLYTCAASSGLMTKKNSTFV
Test: receptor-Fc IP
Method in brief: as §1

Binder | binding result
B1 | no binding
B2 | no binding
B3 | no binding
B4 | no binding
B5 | no binding
B6 | no binding
B7 | no binding
B8 | no binding
B9 | no binding
B10 | no binding
B11 | no binding
B12 | no binding
B13 | no binding
B14 | no binding
B15 | no binding
B16 | no binding
B17 | no binding
B18 | no binding
B19 | no binding
B20 | no binding
B21 | no binding
B22 | no binding
B23 | no binding
B24 | no binding
B25 | no binding
B26 | no binding
B27 | no binding

Molecular target: T1, VEGFR-3-Fc
Test: receptor-Fc IP
Method in brief: as §1

Binder | binding result
B1 | no binding
B2 | no binding
B3 | no binding
B4 | no binding
B5 | no binding
B6 | no binding
B7 | no binding
B8 | no binding
B9 | no binding
B10 | no binding
B11 | no binding
B12 | no binding
B13 | no binding
B14 | no binding
B15 | no binding
B16 | no binding
B17 | no binding
B18 | no binding
B19 | no binding
B20 | no binding
B21 | no binding
B22 | no binding
B23 | no binding
B24 | no binding
B25 | no binding
B26 | no binding
B27 | no binding
